± gives the uncertainty stated by the source.

Experimental findings from the Human Domainome abundance scans (Beltran et al. 2025) are described below.

The series in a line: abundance fitness (aPCA) (normalised: wild type 0, dead -1); higher = more abundant; growth selection in yeast, the domain comes from the species named. The conditions noted are these: Homo sapiens.
With “DnaJ homolog subfamily B member 1 E42S, P25685”, the abundance fitness is -0.016 ± 0.065.
The result for “DnaJ homolog subfamily B member 1 E42T, P25685” reads -0.052 ± 0.093; that for “DnaJ homolog subfamily B member 1 E42W, P25685”, -0.122 ± 0.11.
The figure for “DnaJ homolog subfamily B member 1 E42Y, P25685” is -0.188 ± 0.1.
The result for “DnaJ homolog subfamily B member 1 E43A, P25685” reads 0.025 ± 0.13.
On to “DnaJ homolog subfamily B member 1 E43C, P25685”, for which the abundance fitness is -0.07 ± 0.2.
For the substance “DnaJ homolog subfamily B member 1 E43D, P25685”, the abundance fitness was -0.153 ± 0.14.
“DnaJ homolog subfamily B member 1 E43F, P25685” registered an abundance fitness of -0.093 ± 0.19.
As to “DnaJ homolog subfamily B member 1 E43G, P25685”, the abundance fitness was 0.009 ± 0.074.
The figure for “DnaJ homolog subfamily B member 1 E43I, P25685” is 0.109 ± 0.12.
“DnaJ homolog subfamily B member 1 E43K, P25685” registered an abundance fitness of 0.156 ± 0.1.
In the case of “DnaJ homolog subfamily B member 1 E43L, P25685”, the abundance fitness is 0.105 ± 0.066.
The figure for “DnaJ homolog subfamily B member 1 E43N, P25685” is -0.003 ± 0.21.
Substance “DnaJ homolog subfamily B member 1 E43P, P25685” gave an abundance fitness of -0.177 ± 0.13.
The figure for “DnaJ homolog subfamily B member 1 E43Q, P25685” is 0.086 ± 0.1.
For “DnaJ homolog subfamily B member 1 E43R, P25685”, the abundance fitness was determined as 0.11 ± 0.051.
Substance “DnaJ homolog subfamily B member 1 E43S, P25685” registered an abundance fitness of -0.014 ± 0.092.
The figure for “DnaJ homolog subfamily B member 1 E43T, P25685” is -0.109 ± 0.12.
Consider “DnaJ homolog subfamily B member 1 E43V, P25685”, for which the abundance fitness was found to be 0.112 ± 0.062.
The substance “DnaJ homolog subfamily B member 1 E43W, P25685” registered an abundance fitness of -0.043 ± 0.069.
The result for “DnaJ homolog subfamily B member 1 E43Y, P25685” reads 0.196 ± 0.32.
The result for “DnaJ homolog subfamily B member 1 E47A, P25685” reads 0.021 ± 0.088.
The result for “DnaJ homolog subfamily B member 1 E47C, P25685” reads -0.218 ± 0.095.
As for “DnaJ homolog subfamily B member 1 E47D, P25685”, the abundance fitness was -0.073 ± 0.13.
The figure for “DnaJ homolog subfamily B member 1 E47F, P25685” is -0.277 ± 0.098; for “DnaJ homolog subfamily B member 1 E47G, P25685” it is -0.054 ± 0.076.
The result for “DnaJ homolog subfamily B member 1 E47H, P25685” reads -0.009 ± 0.11; that for “DnaJ homolog subfamily B member 1 E47K, P25685”, -0.43 ± 0.12.
The figure for “DnaJ homolog subfamily B member 1 E47M, P25685” is -0.186 ± 0.096; for “DnaJ homolog subfamily B member 1 E47N, P25685” it is 0.333 ± 0.21; for “DnaJ homolog subfamily B member 1 E47P, P25685” it is -0.212 ± 0.088.
“DnaJ homolog subfamily B member 1 E47Q, P25685” returned an abundance fitness of -0.153 ± 0.1.
The result for “DnaJ homolog subfamily B member 1 E47R, P25685” reads -0.071 ± 0.068.
The figure for “DnaJ homolog subfamily B member 1 E47S, P25685” is -0.099 ± 0.072; for “DnaJ homolog subfamily B member 1 E47T, P25685” it is -0.118 ± 0.068.
The figure for “DnaJ homolog subfamily B member 1 E47V, P25685” is -0.295 ± 0.088; for “DnaJ homolog subfamily B member 1 E50A, P25685” it is -0.241 ± 0.11; for “DnaJ homolog subfamily B member 1 E50C, P25685” it is -0.311 ± 0.095.
“DnaJ homolog subfamily B member 1 E50D, P25685”: the abundance fitness is -0.074 ± 0.087.
Turning to “DnaJ homolog subfamily B member 1 E50F, P25685”, the abundance fitness is -0.612 ± 0.19.
Substance “DnaJ homolog subfamily B member 1 E50G, P25685” displayed an abundance fitness of -0.326 ± 0.13.
The result for “DnaJ homolog subfamily B member 1 E50H, P25685” reads -0.222 ± 0.17; that for “DnaJ homolog subfamily B member 1 E50I, P25685”, -0.011 ± 0.1.
As to “DnaJ homolog subfamily B member 1 E50L, P25685”, the abundance fitness was -0.026 ± 0.052.
The result for “DnaJ homolog subfamily B member 1 E50M, P25685” reads -0.181 ± 0.12; that for “DnaJ homolog subfamily B member 1 E50N, P25685”, -0.328 ± 0.1; that for “DnaJ homolog subfamily B member 1 E50P, P25685”, -0.885 ± 0.18.
The result for “DnaJ homolog subfamily B member 1 E50Q, P25685” reads -0.177 ± 0.082; that for “DnaJ homolog subfamily B member 1 E50R, P25685”, -0.036 ± 0.062; that for “DnaJ homolog subfamily B member 1 E50S, P25685”, -0.211 ± 0.066.
The result for “DnaJ homolog subfamily B member 1 E50V, P25685” reads -0.085 ± 0.078.
As for “DnaJ homolog subfamily B member 1 E50W, P25685”, the abundance fitness is -0.34 ± 0.11.
The figure for “DnaJ homolog subfamily B member 1 E50Y, P25685” is -0.096 ± 0.12; for “DnaJ homolog subfamily B member 1 E62C, P25685” it is -0.361 ± 0.14.
The result for “DnaJ homolog subfamily B member 1 E62D, P25685” reads -0.31 ± 0.13.
The result for “DnaJ homolog subfamily B member 1 E62F, P25685” reads -0.519 ± 0.12.
As to “DnaJ homolog subfamily B member 1 E62G, P25685”, the abundance fitness is -0.272 ± 0.15.
Substance “DnaJ homolog subfamily B member 1 E62H, P25685” displayed an abundance fitness of -0.351 ± 0.081.
On to “DnaJ homolog subfamily B member 1 E62I, P25685”, for which the abundance fitness is -0.378 ± 0.14.
“DnaJ homolog subfamily B member 1 E62M, P25685” returned an abundance fitness of -0.32 ± 0.11.
The figure for “DnaJ homolog subfamily B member 1 E62N, P25685” is -0.567 ± 0.28; for “DnaJ homolog subfamily B member 1 E62P, P25685” it is -0.134 ± 0.079.
The figure for “DnaJ homolog subfamily B member 1 E62Q, P25685” is -0.353 ± 0.12; for “DnaJ homolog subfamily B member 1 E62R, P25685” it is -0.344 ± 0.095.
Take “DnaJ homolog subfamily B member 1 E62S, P25685”: the abundance fitness was -0.212 ± 0.077.
Substance “DnaJ homolog subfamily B member 1 E62V, P25685” registered an abundance fitness of -0.218 ± 0.12.
The result for “DnaJ homolog subfamily B member 1 E62W, P25685” reads -0.626 ± 0.096; that for “DnaJ homolog subfamily B member 1 E62Y, P25685”, -0.552 ± 0.22.
Turning to “DnaJ homolog subfamily B member 1 F45A, P25685”, the abundance fitness is -0.21 ± 0.076.
The substance “DnaJ homolog subfamily B member 1 F45C, P25685” returned an abundance fitness of -0.351 ± 0.12.
With “DnaJ homolog subfamily B member 1 F45D, P25685”, the abundance fitness is -0.352 ± 0.076.
For the substance “DnaJ homolog subfamily B member 1 F45E, P25685”, the abundance fitness is -0.277 ± 0.095.
Substance “DnaJ homolog subfamily B member 1 F45G, P25685” registered an abundance fitness of -0.247 ± 0.089.
“DnaJ homolog subfamily B member 1 F45H, P25685” displayed an abundance fitness of -0.096 ± 0.17.
Consider “DnaJ homolog subfamily B member 1 F45I, P25685”, for which the abundance fitness is -0.158 ± 0.07.
“DnaJ homolog subfamily B member 1 F45K, P25685”: the abundance fitness was -0.444 ± 0.16.
“DnaJ homolog subfamily B member 1 F45L, P25685” yielded an abundance fitness of -0.21 ± 0.055.
The figure for “DnaJ homolog subfamily B member 1 F45M, P25685” is -0.305 ± 0.092.
The figure for “DnaJ homolog subfamily B member 1 F45N, P25685” is -0.221 ± 0.1.
The result for “DnaJ homolog subfamily B member 1 F45P, P25685” reads -0.508 ± 0.072; that for “DnaJ homolog subfamily B member 1 F45Q, P25685”, -0.211 ± 0.11.
Consider “DnaJ homolog subfamily B member 1 F45R, P25685”, for which the abundance fitness was -0.185 ± 0.062.
The result for “DnaJ homolog subfamily B member 1 F45S, P25685” reads -0.143 ± 0.085; that for “DnaJ homolog subfamily B member 1 F45T, P25685”, -0.281 ± 0.075; that for “DnaJ homolog subfamily B member 1 F45V, P25685”, -0.306 ± 0.061.
“DnaJ homolog subfamily B member 1 F45W, P25685”: the abundance fitness amounted to 0 ± 0.099.
The figure for “DnaJ homolog subfamily B member 1 F45Y, P25685” is -0.178 ± 0.17; for “DnaJ homolog subfamily B member 1 F64A, P25685” it is -0.361 ± 0.3; for “DnaJ homolog subfamily B member 1 F64Q, P25685” it is -0.344 ± 0.28.
The result for “DnaJ homolog subfamily B member 1 F64S, P25685” reads -0.109 ± 0.23; that for “DnaJ homolog subfamily B member 1 F64Y, P25685”, 0.009 ± 0.48.
